The values that follow come from US20180117114A1 (INDIANA UNIVERSITY RESEARCH AND TECHNOLOGY COPORATION, published 2018).

The target of this assay is CRMP-2 from wild-type mouse brain lysate (mouse, UniProt O08553 1-572). Kind of assay: SPOTS array of neurofibromin 15-mers overlaid with mouse brain lysate, probed with three CRMP-2 antibodies.
For the molecule RVSHGQIKQIIRILS (15-mer on a SPOTS membrane) [SEQ ID NO: 1, neurofibromin C-terminus peptide RVSHGQIKQIIRILS], the binding result was “binds”.
With KGYRHPSPAIVARTV (15-mer on a SPOTS membrane) [SEQ ID NO: 2, neurofibromin C-terminus peptide KGYRHPSPAIVARTV] the entry was “binds”.
For the molecule YLQSFGFNGLWRFAG (15-mer on a SPOTS membrane) [SEQ ID NO: 3, neurofibromin C-terminus peptide YLQSFGFNGLWRFAG], the binding result is reported as “binds”.
